Reference: US20240415884A1

Biological target: T1, CD276 expressed on cells (Du145, PC3, CD276+ 293T, CHO-K1-CD276-Luci cells) (human) (UniProt Q5ZPR3)
T1 sequence (looked up): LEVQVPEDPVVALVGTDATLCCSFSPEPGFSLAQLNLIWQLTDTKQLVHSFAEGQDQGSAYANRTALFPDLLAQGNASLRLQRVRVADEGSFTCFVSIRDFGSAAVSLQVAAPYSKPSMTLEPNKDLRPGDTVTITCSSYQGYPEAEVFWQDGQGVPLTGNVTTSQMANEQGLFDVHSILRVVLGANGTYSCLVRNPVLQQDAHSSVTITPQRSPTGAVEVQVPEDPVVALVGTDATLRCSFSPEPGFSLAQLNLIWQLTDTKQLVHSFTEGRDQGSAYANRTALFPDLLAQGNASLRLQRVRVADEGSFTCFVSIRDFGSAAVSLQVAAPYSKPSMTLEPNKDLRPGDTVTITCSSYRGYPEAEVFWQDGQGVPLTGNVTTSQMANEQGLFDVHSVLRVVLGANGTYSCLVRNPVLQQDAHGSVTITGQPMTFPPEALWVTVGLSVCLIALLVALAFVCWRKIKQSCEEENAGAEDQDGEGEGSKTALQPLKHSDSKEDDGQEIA

B1: BiTE #5 (bispecific antibody, part only; not given: anti-CD3 scFv, part only)
chain, part: EVQLVESGGGLVQPGGSLRLSCAASPFPFTIYEMSWVRQASGKALEWIGYINHSGSTNYNPSLKSRVTISRDNSKNTLYLQMNSLRAEDTAMYYCAILAPDYWGQGTLVTVSSGGGGSGGGGSGGGGS
EC50 (read off the curve), percent lysis: 8 nM
